The text below walks through data of paper PMC8152475 (Biomedicines, 2021).

The target of assay [1] is T1, unlabeled recombinant HK2 (UniProt P52789 1-917).
T1 sequence (looked up): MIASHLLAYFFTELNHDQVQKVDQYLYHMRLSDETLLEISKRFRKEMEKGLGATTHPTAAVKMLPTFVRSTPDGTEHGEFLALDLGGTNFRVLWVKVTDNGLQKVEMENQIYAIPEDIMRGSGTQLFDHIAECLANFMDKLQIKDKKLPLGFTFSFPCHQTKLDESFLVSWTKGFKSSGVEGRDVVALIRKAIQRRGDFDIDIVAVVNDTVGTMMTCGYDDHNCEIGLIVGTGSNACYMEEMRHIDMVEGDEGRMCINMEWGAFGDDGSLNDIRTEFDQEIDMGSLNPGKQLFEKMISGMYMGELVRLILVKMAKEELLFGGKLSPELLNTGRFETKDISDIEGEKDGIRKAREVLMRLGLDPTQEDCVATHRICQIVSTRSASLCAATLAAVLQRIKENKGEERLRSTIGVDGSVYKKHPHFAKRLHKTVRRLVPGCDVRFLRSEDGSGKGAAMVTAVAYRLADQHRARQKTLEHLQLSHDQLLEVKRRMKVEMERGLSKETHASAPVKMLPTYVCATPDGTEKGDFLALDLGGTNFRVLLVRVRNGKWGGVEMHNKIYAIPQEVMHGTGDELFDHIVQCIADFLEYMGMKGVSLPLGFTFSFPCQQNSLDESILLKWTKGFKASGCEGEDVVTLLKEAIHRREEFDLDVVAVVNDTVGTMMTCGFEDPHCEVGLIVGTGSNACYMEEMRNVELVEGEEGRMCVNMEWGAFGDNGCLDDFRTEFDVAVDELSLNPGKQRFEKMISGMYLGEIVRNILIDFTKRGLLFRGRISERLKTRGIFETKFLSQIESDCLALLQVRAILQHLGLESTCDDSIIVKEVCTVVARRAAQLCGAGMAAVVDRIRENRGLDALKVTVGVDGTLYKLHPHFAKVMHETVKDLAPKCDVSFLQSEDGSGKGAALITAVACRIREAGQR
Description: other fluorescence titration. Conditions: both partners purified.

Assay [2] addresses T2, unlabeled recombinant TBK1 (UniProt Q9UHD2 1-729).
T2 sequence (looked up): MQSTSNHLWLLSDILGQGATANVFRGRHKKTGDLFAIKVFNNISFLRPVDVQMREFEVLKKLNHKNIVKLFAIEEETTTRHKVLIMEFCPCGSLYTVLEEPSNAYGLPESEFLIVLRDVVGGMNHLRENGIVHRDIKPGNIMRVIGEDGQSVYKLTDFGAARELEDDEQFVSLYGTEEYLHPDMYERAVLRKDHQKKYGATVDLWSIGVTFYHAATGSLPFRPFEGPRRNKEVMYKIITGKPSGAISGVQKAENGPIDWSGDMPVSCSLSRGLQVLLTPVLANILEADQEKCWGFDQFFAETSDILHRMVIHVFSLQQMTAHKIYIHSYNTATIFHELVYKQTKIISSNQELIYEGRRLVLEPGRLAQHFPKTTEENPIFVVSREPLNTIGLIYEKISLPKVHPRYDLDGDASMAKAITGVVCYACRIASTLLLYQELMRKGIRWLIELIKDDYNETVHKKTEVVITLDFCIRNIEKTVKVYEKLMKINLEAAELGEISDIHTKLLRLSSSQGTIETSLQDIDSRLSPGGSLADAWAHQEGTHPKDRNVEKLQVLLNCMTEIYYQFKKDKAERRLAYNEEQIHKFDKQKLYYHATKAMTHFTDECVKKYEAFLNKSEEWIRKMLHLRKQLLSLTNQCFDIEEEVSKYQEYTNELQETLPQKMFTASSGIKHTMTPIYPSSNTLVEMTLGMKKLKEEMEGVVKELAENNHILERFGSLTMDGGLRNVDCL
As to the kind of experiment: other fluorescence titration. To be noted: both partners purified.

Assay [3] deals with TBK1. As to the kind of experiment: Endogenous co-immunoprecipitation with TBK1 in THP-1 cells. It counts as binding, human. Conditions: 5 μg mL^−1, IP with αHis-agarose bead. As for the experimental part:
(§1) Figure 1 TBK1 and p47phox is bound with MPT63. (A) Identification of TBK1 and p47phox by mass spectrometry analysis in THP-1 cell lysates treated with rMPT63 or rVector. (B) THP-1 cells were stimulated with rMPT63 (5 μg mL^−1) for the indicated times, followed by immunoprecipitation (IP) with αHis-agarose bead and IB with αTBK1, αP-TBK1 (S172), αp47phox, αP-p47phox (S304, 345, 359, and 370), αHis, αActin. […] (E,G) Binding mapping. Schematic diagrams of the structures of MPT63 (upper). At 48 h after transfection with mammalian glutathione S-transferase (GST) or GST-MPT63 and truncated mutant constructs together with Flag-TBK1 or V5-p47phox. 293T cells were used for GST pull down, followed by IB with αFlag or αV5. Cell lysates (WCLs) were used for IB with αFlag or αV5, αGST, and αActin. […]
(§2) Antibody binding was visualized by chemiluminescence (ECL; Millipore) and detected by a Vilber chemiluminescence analyzer (Fusion SL 3; Vilber Lourmat).
(§3) Confocal fluorescence microscopy
(§4) Immunofluorescence analysis was performed as described previously (Koh et al, 2017). […] TRAF6 or His was detected using a 1/100 dilution of the primary Ab for 1 h at 25 °C. […]
(§5) Cell viability relative to non-treated group was measured by MTT assay, as […]

For assay [4], the system named is host proteins in THP-1 macrophage cell lysates. As to the kind of experiment: Co-immunoprecipitation from THP-1 cell lysates with mass spectrometry identification of binding partners. On the set-up: species or system human.
For assay [5], the target named is T3, unlabeled recombinant p47phox (UniProt P14598 1-390).
T3 sequence (looked up): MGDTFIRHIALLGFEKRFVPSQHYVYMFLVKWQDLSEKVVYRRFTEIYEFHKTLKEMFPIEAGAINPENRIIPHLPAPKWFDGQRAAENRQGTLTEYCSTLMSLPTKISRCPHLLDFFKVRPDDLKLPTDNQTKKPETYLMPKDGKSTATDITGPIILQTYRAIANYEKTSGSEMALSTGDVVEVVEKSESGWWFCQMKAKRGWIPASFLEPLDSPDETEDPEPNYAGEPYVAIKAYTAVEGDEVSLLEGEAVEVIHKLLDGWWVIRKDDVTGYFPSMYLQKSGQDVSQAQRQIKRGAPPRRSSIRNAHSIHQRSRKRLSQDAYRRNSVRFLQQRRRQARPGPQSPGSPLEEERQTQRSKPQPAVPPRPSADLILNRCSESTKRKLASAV
As to the kind of experiment: other fluorescence titration. Conditions: both partners purified.

Assay [6] deals with p47phox. Type of assay: binding.
Assay [7] addresses T4, TBK1 (Homo sapiens, UniProt Q9UHD2).
T4 sequence (Q9UHD2 1-729): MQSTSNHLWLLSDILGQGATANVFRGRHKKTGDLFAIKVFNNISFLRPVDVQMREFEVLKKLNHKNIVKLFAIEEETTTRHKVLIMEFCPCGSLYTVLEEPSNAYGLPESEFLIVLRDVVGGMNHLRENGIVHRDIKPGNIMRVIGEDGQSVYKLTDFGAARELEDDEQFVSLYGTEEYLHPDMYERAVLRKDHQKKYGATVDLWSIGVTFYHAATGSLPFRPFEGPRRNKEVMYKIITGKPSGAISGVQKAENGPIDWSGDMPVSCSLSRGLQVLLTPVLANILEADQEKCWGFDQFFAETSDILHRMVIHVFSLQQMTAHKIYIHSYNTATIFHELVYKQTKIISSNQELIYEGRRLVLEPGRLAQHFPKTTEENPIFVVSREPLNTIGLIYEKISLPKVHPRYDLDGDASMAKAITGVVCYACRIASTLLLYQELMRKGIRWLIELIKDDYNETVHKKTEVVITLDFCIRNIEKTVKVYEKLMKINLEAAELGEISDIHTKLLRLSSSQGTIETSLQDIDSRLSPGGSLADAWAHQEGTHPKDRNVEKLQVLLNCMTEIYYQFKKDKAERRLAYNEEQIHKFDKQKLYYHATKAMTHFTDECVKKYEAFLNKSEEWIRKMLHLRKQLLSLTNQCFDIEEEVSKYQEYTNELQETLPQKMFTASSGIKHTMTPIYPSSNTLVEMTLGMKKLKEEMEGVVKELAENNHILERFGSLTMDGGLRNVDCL
It counts as binding.

The next assay relates to macrophages. To be noted: conformational switch dependent on the pH of the host; ref [8]; cited from earlier work.
The subject of assay [8] is murine peritoneal macrophages. Conditions: TNF-α and IL-6 secretion, ref [9]; cited from earlier work.
The test system of the next assay is Th1 cell. To be noted: MPT63 and its epitope; ref [44]; cited from earlier work.
In assay [9] the test system is HLA-DR, an MHC class II cell surface receptor. To be noted: MPT63 and its epitope; ref [44]; cited from earlier work.
For assay [10], the system named is p47phox. As to the kind of experiment: Endogenous co-immunoprecipitation with p47phox in THP-1 cells. To be noted: rMPT63 5 μg mL^−1, IP with αHis-agarose bead. It counts as binding, human. How it is done:
as §1, §2, §3, §4, §5

B1: fluorescently labelled MPT64 (natural protein)
chain: APKTYCEELKGTDTGQACQIQMSDPAYNINISLPSYYPDQKSLENYIAQTRDKFLSAATSSTPREAPYELNITSATYQSAIPPRGTQAVVLKVYQNAGGTHPTTTYKAFDWDQAYRKPITYDTLWQADTDPLPVVFPIVQGELSKQTGQQVSIAPNAGLDPVNYQNFAVTNDGVIFFFNPGELLPEAAGPTQVLVPRSAIDSMLA
The Kd is a measure of binding affinity in units of concentration. As for B1, the Kd in assay [1] came out at 134 nM; in [2], 193 nM.

B2: rMPT64: recombinant MPT64, produced in a bacterially expressed system as MPT63 (protein)
chain: APKTYCEELKGTDTGQACQIQMSDPAYNINISLPSYYPDQKSLENYIAQTRDKFLSAATSSTPREAPYELNITSATYQSAIPPRGTQAVVLKVYQNAGGTHPTTTYKAFDWDQAYRKPITYDTLWQADTDPLPVVFPIVQGELSKQTGQQVSIAPNAGLDPVNYQNFAVTNDGVIFFFNPGELLPEAAGPTQVLVPRSAIDSMLA
For the molecule B2, in the assay with TBK1 [3], the “endogenous interaction with TBK1 and phosphorylated form” value is given as “phosphorylated TBK1 (S172) also interacted with rMPT64”. Besides, in assay [4], the “binding partners identified by mass spectrometry” value was “interacted with several host proteins, including hexokinase 2 (HK2, 102K), TBK1 (83K), protein kinase Cα (PKCα, 76K), TNF receptor associated factor 6 (TRAF6, 60K), and p38MAPK (38K)”.

B3: fluorescently labelled MPT63 (natural protein)
chain: AYPITGKLGSELTMTDTVGQVVLGWKVSDLKSSTAVIPGYPVAGQVWEATATVNAIRGSVTPAVSQFNARTADGINYRVLWQAAGPDTISGATIPQGEQSTGKIYFDVTGPSPTIVAMNNGMEDLLIWEP
In the case of B3, the results for the Kd in assay [2] and in assay [5] were 178 nM and 345 nM, respectively.

B4: MPT63: secretory immunodominant antigen of MTB (protein)
chain: AYPITGKLGSELTMTDTVGQVVLGWKVSDLKSSTAVIPGYPVAGQVWEATATVNAIRGSVTPAVSQFNARTADGINYRVLWQAAGPDTISGATIPQGEQSTGKIYFDVTGPSPTIVAMNNGMEDLLIWEP
As for B4, the “region of MPT63 binding p47phox” value with p47phox [6] is “The C-terminal of MPT63 was associated with p47phox, particularly the 150–159 amino acids in the C-terminal domain of MPT63 were important for binding with p47phox. Additionally, E152, D153, and E158 in MPT63 were key amino acids”. Further, the “region of MPT protein binding TBK1” value with TBK1 [7] is “the N-terminal of MPT63 bound with TBK1 and 48–56 peptide was essential for the interaction between MPT63 and TBK1. Specifically, 50–56 amino acids, except G53, seemed to be fundamental for binding”. Also, the macrophage cell death entry in the assay with macrophages was “induced cell death of macrophages”. In addition, the phagocytic activity result in [8] is “enhanced the phagocytic activity by upregulating the secretion of TNF-α and IL-6”. The Th1 cell reactivity entry with Th1 cell is “induce a moderate Th1 cell reactivity”. The “binding to HLA-DR” value in [9] is “bind promiscuously to HLA-DR”.

B5: rMPT63: recombinant MPT63, purified using a 6x His bacterially expressed system (protein)
chain: AYPITGKLGSELTMTDTVGQVVLGWKVSDLKSSTAVIPGYPVAGQVWEATATVNAIRGSVTPAVSQFNARTADGINYRVLWQAAGPDTISGATIPQGEQSTGKIYFDVTGPSPTIVAMNNGMEDLLIWEP
For B5, in the assay on TBK1 [3], the “endogenous interaction with TBK1 and phosphorylated form” value was “interacted with TBK1 and p47phox and, interestingly, with their phosphorylated forms as well”. Also, the “binding partners identified by mass spectrometry” value in assay [4] is “included TANK-binding kinase (TBK1, 83K), receptor-interacting serine/threonine-protein kinase 1 (RIP1, 75K), RAC-alpha serine/threonine-protein kinase (AKT, 55K), Neutrophil cytosol factor 1 (p47phox, 45K), and p38 mitogen-activated protein kinase (p38MAPK, 38K)”. The “endogenous interaction with p47phox and phosphorylated forms” value in the assay on p47phox [10] is “interacted with TBK1 and p47phox and, interestingly, with their phosphorylated forms as well (S345 and S359)”.
